Among the data in PMC7772773 are percent of parent values, retold here.

The assay addresses T1, EGFP-RABL2B, Q9UNT1.
T1 chain: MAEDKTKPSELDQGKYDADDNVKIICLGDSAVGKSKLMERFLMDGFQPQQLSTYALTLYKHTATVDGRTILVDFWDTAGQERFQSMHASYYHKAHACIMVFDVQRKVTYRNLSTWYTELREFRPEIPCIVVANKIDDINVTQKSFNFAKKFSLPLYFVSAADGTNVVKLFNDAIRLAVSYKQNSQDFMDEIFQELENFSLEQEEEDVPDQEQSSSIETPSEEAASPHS
As to the kind of experiment: co-immunoprecipitation (IP anti-EGFP, Western blot anti-Myc), IP/input band quantitation. The conditions noted are these: chain shown with the change; lysates from HEK293T cells; Input is 2.5% of lysate used for IP; parent: 100. Background: Immunoblotting shows a protein as a band on a membrane.

B1: CD8α-(HTR6-CT)-myc, Q9R1C8 L398A; L399A; L400A (protein)
chain: MVPEPGPVNSSTPAWGPGPPPAPGGSGWVAAALCVVIVLTAAANSLLIALICTQPALRNTSNFFLVSLFTSDLMVGLVVMPPAMLNALYGRWVLARGLCLLWTAFDVMCCSASILNLCLISLDRYLLILSPLRYKLRMTAPRALALILGAWSLAALASFLPLLLGWHELGKARTSAPGQCRLLASLPYVLVASGVTFFLPSGAICFTYCRILLAARKQAVQVASLTTGTATAGQALETLQVPRTPRPGMESADSRRLTTKHSRKALKASLTLGILLSMFFVTWLPFFVASIAQAVCDCISPGLFDVLTWLGYCNSTMNPIIYPLFMRDFKRALGRFVPCVHCPPEHRASPASPSMWTSHSGARPGLSLQQVLPLPLPPNSDSDSASGGTSGLQLTAQAAAPGEATRDPPPPTRAPTVVNFFVTDSVEPEIRQHPLGSPMN
For B1, the percent of parent was found to be 243%.
